Test results reported in US20160362487A1 (Regeneron, published 2016).

T1: human IL-33 (R&D Systems, #3625-IL-010/CF) (human, UniProt O95760 112-270)
T1 construct: Commercial recombinant protein; also called hIL-33; interleukin-33
T1 sequence (looked up): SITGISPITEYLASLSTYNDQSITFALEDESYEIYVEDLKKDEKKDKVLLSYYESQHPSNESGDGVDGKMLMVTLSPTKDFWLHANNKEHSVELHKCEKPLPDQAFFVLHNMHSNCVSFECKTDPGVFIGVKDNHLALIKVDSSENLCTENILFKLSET

T2: cynomolgus monkey IL-33 expressed with a C-terminal hexahistidine tag (cynomolgus monkey)
T2 construct: also called MfIL-33-6His; Mf-IL-33-6His
T2 chain: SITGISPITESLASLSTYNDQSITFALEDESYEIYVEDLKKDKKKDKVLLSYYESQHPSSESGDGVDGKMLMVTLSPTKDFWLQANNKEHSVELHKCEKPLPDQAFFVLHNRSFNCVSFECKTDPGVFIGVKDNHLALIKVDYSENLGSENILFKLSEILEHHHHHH


Legend:
[1] = biological target: T1, human IL-33 (R&D Systems, …); experiment: BLI; hIL-33 pre-mixed with mAb-2 Isotype control 2
Experimental: (§1) Binding competition between a panel of different anti-IL-33 monoclonal antibodies was determined using a real time, label-free bio-layer interferometry assay on an Octet® HTX biosensor (ForteBio, A Division of Pall Life Sciences). The experiment was performed at 25° C. using a buffer of 0.01M HEPES pH7.4, 0.15M NaCl, 0.05% v/v Surfactant Tween-20, and 0.1 mg/ml BSA (HBS-ET kinetics buffer) with the plate shaking at a speed of 1000 rpm. To assess whether two antibodies were able to compete with one another for binding to human IL-33, a pre-mix assay format was used where 100 nM of human IL-33 (R&D Systems; #3625-IL-010/CF) was pre-mixed with 500 nM of different anti-IL-33 monoclonal antibodies (subsequently referred to as mAb-2) for at least 2 hours prior to running the binding competition assay. […] Following the capture step, unoccupied anti-mouse Fc polyclonal antibody and anti-human Fc polyclonal antibody on the Octet biosensors were saturated by submerging them for 4 minutes into wells containing 200 μg/mL of a non-specific monoclonal antibody with a mouse Fc or with a human Fc, respectively. Finally, the Octet biosensors were immersed for 4 minutes into wells containing the pre-mixed samples of 100 nM of human IL-33 and 500 nM of mAb-2. At the end of each cycle, the non-covalently captured anti-IL-33 antibodies along with the bound pre-complex of human IL-33 and mAb-2 were removed from the biosensors using three alternate 20 second immersions into 10 mM HCl followed by submerging into HBS-ET kinetics buffer. The biosensors were washed in HBS-ET kinetics buffer in between every step of the experiment. The real-time binding response was monitored during the binding events, and the binding response (in units of nm) at the end of every step was recorded.

[2] = biological target: T1, human IL-33 (R&D Systems, …); experiment: SPR 25C, pH6.0 chase, mAb captured
Experimental: (§2) Equilibrium dissociation constants (KD values) for IL-33 binding to purified anti-IL-33 monoclonal antibodies were determined using a real-time surface plasmon resonance biosensor using a Biacore 4000 instrument. The Biacore sensor surface was first derivatized by amine coupling with either a polyclonal rabbit anti-mouse antibody (GE, # BR-1008-38) or with a monoclonal mouse anti-human Fc antibody (GE, # BR-1008-39) to capture anti-IL-33 monoclonal antibodies expressed with mouse or with human IgG4 constant regions, respectively. All Biacore binding studies were performed in 0.01M ADA pH 7.4, 0.15M NaCl, 3 mM EDTA, and 0.05% v/v Surfactant Tween-20 (ABS-ET running buffer). […] Association of either hIL-33 or MfIL-33-6His to the captured monoclonal antibody was monitored for 4 minutes and their dissociation in ABS-ET running buffer was monitored for 10 minutes. The effect of reduced pH on the binding of each anti-IL-33 antibody to either hIL-33 or MfIL-33-6His was studied using an in-line pH chase assay format in 0.01M ADA pH 6.0, 0.15M NaCl, 3 mM EDTA, and 0.05% v/v Surfactant Tween-20 (ABS-ET pH6 buffer). To achieve this, association of either hIL-33 or MfIL-33-6His to the captured monoclonal antibody was monitored for 4 minutes in ABS-ET running buffer. Following a 30 second dissociation of either hIL-33 or MfIL-33-6His in ABS-ET running buffer, ABS-ET pH6 buffer was injected for 3 minutes, and the analyte dissociation under the low-pH conditions was measured. All the binding kinetic experiments were performed at both 25° C. and 37° C. Kinetic association (kₐ) and dissociation (kd) constants were determined by fitting the real-time sensorgrams to a 1:1 binding model using Scrubber 2.0c curve fitting software. Binding dissociation equilibrium constants (KD) and dissociative half-lives (t½) were calculated from the kinetic rate constants as: […]

[3] = biological target: T2, cynomolgus monkey IL-33 expressed with …; experiment: SPR 25C, pH6.0 chase, mAb captured
Experimental: as §2

[4] = biological target: T1, human IL-33 (R&D Systems, …); experiment: BLI; hIL-33 pre-mixed with mAb-2 Isotype control 1
Experimental: as §1

[5] = biological target: T1, human IL-33 (R&D Systems, …); experiment: cell-based or functional assay
[6] = biological target: T2, cynomolgus monkey IL-33 expressed with …; experiment: cell-based or functional assay

Row | Binder | mAb-1 Binding to the Pre-complex of mAb-2 & hIL-33 [1] [nm] | koff [2] [s⁻¹] | t½ [2] [min] | t½ Ratio (pH 7.4/pH 6.0) [2] | koff [3] [s⁻¹] | t½ [3] [min] | t½ Ratio (pH 7.4/pH 6.0) [3] | mAb-1 Binding to the Pre-complex of mAb-2 & hIL-33 [4] [nm] | IC50, inhibition of 10 pM hIL-33 activation of HEK293/hST2/NFkB-luciferase cells [5] [M] | IC50, inhibition of 5 pM MfIL-33-6His activation of HEK293/hST2/NFkB-luciferase cells [6] [M]
1 | H4H9672P (antibody, human IgG4, V domains shown, Human IgG4 Fc (H4H)) VH: EVQLVESGGGLVQPGGSLRLSCAASGFTLRSYVMYWVRQGPGKGLEGVSGISGSSGGTYYTDSVKGRFTISRDNSKNTLFLQMNSLRAEDTAVYFCARSVYSTTWYGGFQHWGQGTLVTVSS VL: DIQMTQSPSSVSVSVGDRVTITCRASQVISSWLAWYQLKPGKAPKLLIYAASSLQSGVPSRFSGSGSGTDFTLTISGLQPEDFAVYYCQQTNSFPLTFGGGTKVEIK | 0.08 | 0.00141 | 8 | 4 | 0.00267 | 4 | 0.7 | 0.16 | 2.5e-11 | 2e-08
2 | H4H9676P (antibody, human IgG4, V domains shown, Human IgG4 Fc (H4H)) VH: EVQLVESGGGLVQPGGSLRLSCSASGFTFSSYAMNWVRQAPGKGLEWVTAISGSGGGTYYADSVKGRFTISRDNSKNSLFLQLNSLRAEDTAVYYCAKQTYTSSWYGGFDIWGQGTMVTVSS VL: DIQMTQSPSSVSASVGDRVTITCRASQGFSSWLAWYQQIPGKAPKLLIYAASRLQSGVPSRFRGSGSGTDFTLTISSLQPEDFATYYCQQANSFPLTFGGGTKVEIK | 0.1 | 0.00121 | 10 | 3.5 | 0.00145 | 8 | 0.4 | 0.11 | 3.5e-11 | 8.4e-09
3 | H4H9670P (antibody, V domains shown, Human IgG4 Fc (H4H)) VH: EVQLVESGGGLVQPGGSLRLSCAASGFTLSSYAMSWVRQAPGKGLEWVSAISGSGGSTYYADSVKGRFTISRDNSKNSLYLQLNSLRAEDTAVYYCAKTLYTTSWYGGFQHWGQGTLVTVSS VL: DIQMTQSPSSVSASIGDRVTITCRASQGISSWLAWYQQKPGKVPKLLIYAASSLQSGFPSRFSGSGSGTDFTLTISSLQPEDFATYYCQQTHSFPWTVGQGTKVEIK | 0.12 | 0.000825 | 14 | 2.9 | 0.000393 | 29 | 0.2 | 0.19 | 1.2e-10 | 1.7e-08
4 | H4H9671P (antibody, human IgG4, V domains shown, Human IgG4 Fc (H4H)) VH: EVQLVESGGGLVQPGGSLRLSCAASGFTLRSYFMTWVRQVPGKGLEGVSAISGISGGTYYTDSVKGRFTISRDNSKNTLFLQMNSLRAEDTAVYFCARTVYSSSYYGGFQHWGQGTLVTVSS VL: DIQMTQSPSSVSVSVGDRVTITCRASQGISSWLAWYQQKPGKAPKLLIYVASSLQSGVPSRFSGSGSGTDFTLTISSLQPEDFATYYCQQTNSFPLTFGGGTKVEIK | 0.07 | 0.00162 | 7 | 4.6 | 0.00161 | 7 | 1.1 | 0.13 | 2.5e-11 | 4.8e-09
5 | H4H9675P (antibody, human IgG4, V domains shown, Human IgG4 Fc (H4H)) VH: EVQLVESGGNLEQPGGSLRLSCTASGFTFSRSAMNWVRRAPGKGLEWVSGISGSGGRTYYADSVKGRFTISRDNSKNTLYLQMNSLSAEDTAAYYCAKDSYTTSWYGGMDVWGHGTTVTVSS VL: DIQMTQSPSSVSASVGDRVTITCRASQGIFSWLAWYQQKPGKAPKLLIYAASSLQSGVPSRFSGSGSGTDFTLTISSLQPEDFAIYYCQQANSVPITFGQGTRLEIK | 0.11 | 0.00111 | 10 | 4.3 | 0.00156 | 7 | 1.2 | 0.13 | 7.5e-12 | 4.1e-09
6 | H1M9559N (antibody, mouse IgG1, V domains shown, Human variable domains, mouse IgG1 Fc (H1M)) VH: QVQLVESGGGVVQPGRSLRLSCAASGFTFSSYGMHWVRQAPGKGLEWVAVIWYDGRNKYYTDSVKGRFTISRDNSKNTLYLQMDSLRAEDTAVYYCARERYISSYYGGFDPWGQGALVTVSS VL: DIQMTQSPSSVSASVGDRVTITCRASQGISSWLAWYQQKPGKAPKVLIYAASSLQSGVPSRFSGSGSGTDFTLTISSLQPEDFATYYCQQANSFPFTFGPGTKLDIK | 0.11 | 0.000187 | 62 | 0.7 | 0.00152 | 8 | 1.2 | 0.06 | 2e-09 | 4.9e-08
